In patent US20170174775A1 (published 2017):

Biological target: T1, IL-RI (Receptor Binding Assay)
T1 construct: The construct used in the RBA is not described; it may be the same as the IL-1R1 fusion protein; also called IL-1RI; IL-1R1
Assay: Receptor Binding Assay; inhibition of IL-1 binding to IL-RI

T1 sequence (P14778 whole entry, the tested form may be a part): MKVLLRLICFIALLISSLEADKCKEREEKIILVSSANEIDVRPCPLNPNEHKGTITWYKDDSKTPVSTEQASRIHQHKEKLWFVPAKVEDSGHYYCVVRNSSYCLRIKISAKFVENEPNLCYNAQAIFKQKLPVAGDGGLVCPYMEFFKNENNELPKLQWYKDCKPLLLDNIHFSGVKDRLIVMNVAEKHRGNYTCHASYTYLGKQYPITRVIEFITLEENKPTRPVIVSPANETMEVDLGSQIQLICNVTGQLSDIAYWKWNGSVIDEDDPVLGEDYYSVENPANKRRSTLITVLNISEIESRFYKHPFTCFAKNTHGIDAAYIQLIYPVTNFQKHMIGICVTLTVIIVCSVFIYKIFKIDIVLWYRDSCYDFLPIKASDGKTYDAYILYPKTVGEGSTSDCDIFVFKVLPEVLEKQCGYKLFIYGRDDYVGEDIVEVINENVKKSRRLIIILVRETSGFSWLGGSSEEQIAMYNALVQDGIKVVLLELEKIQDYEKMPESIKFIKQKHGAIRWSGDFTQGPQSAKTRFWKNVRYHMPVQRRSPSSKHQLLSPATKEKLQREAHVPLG

| IC50 [nM] | Binder |
| --- | --- |
| 0.28 | DOM4-130-54 (other, dAb (VK single variable domain) against IL-1R1; parent) VL: DIQMTQSPSSLSASVGDRVTITCRASQDIYLNLDWYQQKPGKAPKLLINFGSELQSGVPSRFSGSGYGTDFTLTISSLQPEDFATYYCQPSFYFPYTFGQGTKVEIKR |
| 0.254 | DOM4-130-202 (other) DIQMTQSPSSLSASVGDRVTISCRASQDIYLNLDWYQQKPGKAPKLLISFGSELQSGVPSRFSGSGYGTDFTLTISSLQPEDSATYYCQPSFYYPYTFGQGTKVEIKR |
| 0.257 | DOM4-130-201 (other) DIQMTQSPSSLSASVGDRVTITCRASQDIYLNLDWYQQKPGKAPKLLIKFGSELQSGVPSRFSGSGYGTDFTLTISNLQPEDFATYYCQPSFYFPYTFGQGTKVEIKW |
